For test [1], the target named is T1, MUC1 (surface cell bound, tumor associated MUC1) (human, UniProt P15941 24-1255, tumor-associated O-glycosylation).
T1 construct: whole, on cells; Endogenous MUC1 on tumor cell lines; also called CD227; CA-15-3
Nature of the test: FACS on T47D cells, antibody at 0.1000 µg/ml. As to the method: (§1) From these antibody solutions further dilution by a factor of 3.162 were made (in a PP microtiter plate), so following antibody concentrations were used for FACS (μg/mL): 100, 31.62 10; 3.16; 1; 0.316; 0.1, 0.0316, 0.01, 0.003162
(§2) bound anti-MUC1 antibodies were detected by: goat anti-human IgG (H+L) Alexa488 conj. 1:200=10 μg/mL final (Invitrogen resp. Molecular probes Cat.No. A-11013) in 100 μL FACS buffer in total: 38.5 μL (stock: 2 mg/mL) were given to 7661.5 μL FACS buffer
(§3) The measurement was performed on a Beckman Coulter Cytomics FC500. Gates were set by analyzing a mock-control of each cell line w/o any antibody incubation. Specific protocol files (.pro) were saved.

In test [2] the target is T1, MUC1 (surface cell bound, tumor …). In words: FACS on T47D cells, antibody at 3.1623 µg/ml. As to the method: as §1, §2, §3
For test [3] the target is unchanged. In words: FACS on T47D cells, antibody at 1.0000 µg/ml. As to the method: as §1, §2, §3
Test [4] has the same target. In words: FACS on T47D cells, antibody at 31.6228 µg/ml. As to the method: as §1, §2, §3
Test [5] has the same target. In words: FACS on T47D cells, antibody at 0.0100 µg/ml. How it is done:
as §1, §2, §3

Test [6] shares this target. In words: FACS on T47D cells, antibody at 0.0032 µg/ml. How it is done: as §1, §2, §3
For test [7] the target is unchanged. Nature of the test: FACS on T47D cells, antibody at 0.3162 µg/ml. As to the method:
as §1, §2, §3

Test [8] has the same target. In words: FACS on T47D cells, antibody at 10.0000 µg/ml. As to the method: as §1, §2, §3
For test [9] the target is unchanged. In words: FACS on T47D cells, antibody at 100.0000 µg/ml. How it is done: as §1, §2, §3
The target is the same in test [10]. Nature of the test: FACS on T47D cells, antibody at 0.0316 µg/ml. How it is done:
as §1, §2, §3

T1 sequence (P15941 24-1255): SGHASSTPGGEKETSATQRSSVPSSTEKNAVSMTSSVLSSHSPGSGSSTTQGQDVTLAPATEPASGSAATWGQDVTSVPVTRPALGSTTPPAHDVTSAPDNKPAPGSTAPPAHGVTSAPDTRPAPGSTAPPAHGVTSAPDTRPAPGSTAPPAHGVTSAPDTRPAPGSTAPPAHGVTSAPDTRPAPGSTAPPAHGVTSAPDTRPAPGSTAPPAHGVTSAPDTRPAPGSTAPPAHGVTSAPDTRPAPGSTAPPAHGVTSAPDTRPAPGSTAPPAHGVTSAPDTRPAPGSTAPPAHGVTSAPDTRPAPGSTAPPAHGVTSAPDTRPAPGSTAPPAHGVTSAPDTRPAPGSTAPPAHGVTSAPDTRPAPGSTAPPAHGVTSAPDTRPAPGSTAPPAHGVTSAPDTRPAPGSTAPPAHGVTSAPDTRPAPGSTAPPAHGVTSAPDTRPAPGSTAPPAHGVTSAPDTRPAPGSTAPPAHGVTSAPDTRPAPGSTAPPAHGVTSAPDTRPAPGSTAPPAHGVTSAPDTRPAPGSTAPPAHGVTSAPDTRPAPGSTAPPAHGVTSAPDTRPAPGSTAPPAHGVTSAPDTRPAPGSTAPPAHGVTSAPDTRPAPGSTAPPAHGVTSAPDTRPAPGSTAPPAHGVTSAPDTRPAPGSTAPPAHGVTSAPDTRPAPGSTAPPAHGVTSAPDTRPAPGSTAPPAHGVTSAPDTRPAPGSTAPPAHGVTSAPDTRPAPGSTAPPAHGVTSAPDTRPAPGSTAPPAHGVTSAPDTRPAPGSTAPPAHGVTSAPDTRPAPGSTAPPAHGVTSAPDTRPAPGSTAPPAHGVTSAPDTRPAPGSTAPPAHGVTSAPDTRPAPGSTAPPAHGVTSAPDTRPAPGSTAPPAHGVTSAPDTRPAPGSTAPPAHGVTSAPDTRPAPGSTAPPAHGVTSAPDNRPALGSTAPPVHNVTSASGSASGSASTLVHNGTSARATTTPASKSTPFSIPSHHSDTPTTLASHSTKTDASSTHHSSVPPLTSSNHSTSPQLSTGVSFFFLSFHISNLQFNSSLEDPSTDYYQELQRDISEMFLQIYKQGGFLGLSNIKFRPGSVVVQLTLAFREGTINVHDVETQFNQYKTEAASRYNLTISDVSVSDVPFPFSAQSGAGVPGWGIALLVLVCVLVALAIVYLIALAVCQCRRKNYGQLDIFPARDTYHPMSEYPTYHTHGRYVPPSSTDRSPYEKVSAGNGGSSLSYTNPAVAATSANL

B1: R764-B7 (HT186-B7 IgG) (antibody, V domains shown)
VH: QMQLVQSGAEVKKPGASVKVSCKASGYTFTGHYMHWVRQAPGQGLEWMGWIDPVTGGTKYAQNFQGWVTMTRDTSIRTAYMELSRLRSDDTAMYYCAREVTGDRGQFDKWGQGTLVTVAS
VL: QSVLTQPPSVSVAPGKTARITCGGNNIGSKSVHWYQQKPGQAPALVIYYGSYRPSGIPERFSGSNYGNTATLTIRRVEAGDEADYYCQVWDSSSDWVFGGGTKLTVLG
notes: Human IgG1, lambda, produced in YB2/0 cells
For the molecule B1, the MFI in test [1] was found to be 0.728; in test [2] it was 4.96; in [3] it was 2.26; in test [4], 9.16; in [5], 1.11; in test [6], 0.738. The MFI amounted to 1.44 in [7], 6.56 in test [8], 12.6 in test [9] and 1.04 in [10].

B2: R764-D11 (HT186-D11 IgG) (antibody, V domains shown)
VH: QMQLVQSEAELKKPGASVKVSCKASGYSFTGHYMHWVRQAPGQGLEWMGWIDPVTGGTKYAQNFQGWVTMTRDTSIRTAYLELSRLRSDDTAMYYCAREVTGDRGQFDKWGQGTLVTVAS
VL: QSVLTQPPSVSVAPGKTARITCGGNNIGSKSVHWYQQKPGQAPALVIYYGSNRPSGIPERFSGSNSGNTATLTISRVEAGDEADYYCQVWDSSSDWVFGGGTKLTVLG
notes: Human IgG1, lambda, produced in YB2/0 cells; also called R764 HT186-D11
With B2, the MFI was 1.45 in [1]; 7.92 in [2]; 4.72 in [3]; 13.2 in test [4]; 1.09 in test [5]; 1.17 in test [6]. Also, the MFI in test [7] was 1.96; in test [8], 11.1; in test [9], 17.4; in test [10], 1.13.

B3: R764-G2 (HT186-G2 IgG) (antibody, V domains shown)
VH: RMQLVQSGAEVKKPGASVKLSCKASGYTFAGHYMHWVRQAPGRGLEWMGWIDPVTGGTKYAQNFQGWVTMTRDTSIRTAYMELSRLRSDDTAMYYCAREVTGDRGQFDKWGQGTLVTVAS
VL: QSVLTQPPSVSVAPGKTARITCGGNNIGSKSVHWYQQKPGQAPVLVIYYGSDRSSGIPERFSGSNSGNTATLTISRVEAGDEADYYCQVWDSSSDWVFGGGTKLTVLG
notes: as for B1
B3: the MFI amounted to 0.664 in test [1]; 0.802 in test [2]; 0.605 in test [3]; 3.68 in [4]; 0.767 in test [5]; 0.706 in test [6]. Moreover, the MFI in [7] was 0.515; in test [8] it was 1.99; in test [9] it was 6.15; in test [10], 1.04.

The values above are taken from patent publication US20110318757A1 (MAB FACTORY, published 2011).
